Test results from patent publication US20260226125A1 (MEDICENNA THERAPEUTICS, published 2026).
Positions count from the first letter of the chain named. In names and notes the source's numbering stands. Values belong to the molecule of their own block, whether it stands above or below them.

What was measured:
[1] = target: T1, human CD25 (IL-2Rα) (human, UniProt P01589 22-240, limits assumed); assay: SPR, drawn table 'Individual Receptor Subunit Binding', column 'Affinity for IL-2Rα Kd (nM)'
T1 construct: Receptor reagent used in SPR; also called interleukin 2 receptor alpha
T1 sequence (looked up): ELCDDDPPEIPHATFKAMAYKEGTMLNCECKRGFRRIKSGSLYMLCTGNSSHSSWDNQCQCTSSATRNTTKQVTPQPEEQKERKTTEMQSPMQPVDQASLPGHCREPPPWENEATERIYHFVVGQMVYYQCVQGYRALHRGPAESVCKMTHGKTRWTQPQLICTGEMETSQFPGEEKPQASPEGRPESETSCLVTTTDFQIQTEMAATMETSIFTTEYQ

[2] = target: T2, human CD122 (IL-2Rβ) (human, UniProt P14784 27-240); assay: SPR, drawn table 'Individual Receptor Subunit Binding', column 'Affinity for IL-2Rβ Kd (nM)'
T2 construct: Receptor reagent used in SPR; also called interleukin 2 receptor beta
T2 sequence (looked up): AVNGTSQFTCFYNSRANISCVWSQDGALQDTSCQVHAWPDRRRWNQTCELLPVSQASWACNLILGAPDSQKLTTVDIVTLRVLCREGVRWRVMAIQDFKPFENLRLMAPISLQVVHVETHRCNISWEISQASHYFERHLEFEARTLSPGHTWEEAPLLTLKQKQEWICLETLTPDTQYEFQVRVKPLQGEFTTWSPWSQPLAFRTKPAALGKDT

[3] = target: T2, human CD122 (IL-2Rβ); assay: SPR; 1:1 binding fit
Procedure: (§1) Binding interactions between proteins using purified preparations or complex mixtures can be examined quantitatively in their native state and can assess binding specificity, stoichiometry, concentration, thermodynamics, kinetics (association, kₐ, and dissociation, kd, rate constants), and overall affinity (equilibrium dissociation constant, KD=kd/kₐ). Sensor chips (CM5) were activated (420 s at a flow rate of 10 μL/min) and 50 μg/mL of Anti-histidine antibody (in Immobilization buffer 10 mM Sodium Acetate (pH4.5)) was injected (420 s at a flow rate of 10 μL/min). For ligand capturing, samples were diluted to 5 μg/mL (HEPES, with 0.005% Tween-20, ph7.4) and injected (flow rate of 10 μL/min) to reach a capture level of ~200 RU. Receptors were diluted and up to 8 concentrations as indicated and injected (flow rate of 30 μL/min) for an association phase of 120 seconds, followed by 300 seconds dissociation.

[4] = target: T1, human CD25 (IL-2Rα); assay: SPR sensorgram, legend 0.195 to 50 nM
Procedure: as §1

[5] = target: T2, human CD122 (IL-2Rβ); assay: SPR; 1:1 binding fit; remark: listed apart in the source
[6] = target: T1, human CD25 (IL-2Rα); assay: SPR; 1:1 binding fit
[7] = target: T3, high affinity IL-2 receptor (human IL-2Rα, IL-2Rβ, IL-2Rγ) on HEK-Blue IL-2 reporter cells (human, UniProt P01589 22-272; P14784 27-551; P31785 23-369); assay: cell-based or functional assay
T3 sequence (looked up) 1: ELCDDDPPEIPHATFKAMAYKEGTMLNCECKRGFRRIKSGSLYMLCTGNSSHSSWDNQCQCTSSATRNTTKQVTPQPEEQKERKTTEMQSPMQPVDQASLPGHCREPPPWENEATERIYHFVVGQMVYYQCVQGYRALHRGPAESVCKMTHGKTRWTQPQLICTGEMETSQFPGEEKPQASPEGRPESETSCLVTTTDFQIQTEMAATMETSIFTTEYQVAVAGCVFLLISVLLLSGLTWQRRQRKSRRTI
T3 sequence (looked up) 2: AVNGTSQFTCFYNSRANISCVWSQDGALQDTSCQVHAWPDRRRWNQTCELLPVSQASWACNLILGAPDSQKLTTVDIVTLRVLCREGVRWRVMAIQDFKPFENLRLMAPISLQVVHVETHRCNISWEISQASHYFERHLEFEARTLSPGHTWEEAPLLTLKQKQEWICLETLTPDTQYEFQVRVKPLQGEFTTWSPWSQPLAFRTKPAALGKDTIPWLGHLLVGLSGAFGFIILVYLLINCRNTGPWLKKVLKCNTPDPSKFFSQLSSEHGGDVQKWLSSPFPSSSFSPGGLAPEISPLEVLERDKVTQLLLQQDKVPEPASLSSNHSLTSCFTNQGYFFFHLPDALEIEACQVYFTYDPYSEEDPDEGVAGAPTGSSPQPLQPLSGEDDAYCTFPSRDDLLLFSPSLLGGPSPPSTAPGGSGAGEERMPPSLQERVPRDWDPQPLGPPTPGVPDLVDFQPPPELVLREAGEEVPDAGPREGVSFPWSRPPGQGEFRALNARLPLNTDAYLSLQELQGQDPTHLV
T3 sequence (looked up) 3: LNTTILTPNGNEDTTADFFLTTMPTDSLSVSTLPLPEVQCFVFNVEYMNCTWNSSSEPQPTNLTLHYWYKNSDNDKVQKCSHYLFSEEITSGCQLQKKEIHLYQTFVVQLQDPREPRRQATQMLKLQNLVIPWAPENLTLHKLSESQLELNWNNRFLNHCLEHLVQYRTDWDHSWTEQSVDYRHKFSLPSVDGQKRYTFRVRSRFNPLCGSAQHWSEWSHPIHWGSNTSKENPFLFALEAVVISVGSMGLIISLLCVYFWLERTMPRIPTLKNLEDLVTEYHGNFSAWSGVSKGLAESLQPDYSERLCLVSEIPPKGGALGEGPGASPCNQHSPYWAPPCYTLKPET

[8] = target: T1, human CD25 (IL-2Rα); assay: SPR; steady state affinity
Procedure: as §1

[9] = target: T4, γc (CD132, IL-2Rγ, common gamma chain) (human, UniProt P31785 23-369); assay: cell-based or functional assay
T4 sequence (looked up): T3 sequence (looked up) 3

[10] = target: T1, human CD25 (IL-2Rα); assay: SPR sensorgram, series 62.5 to 1.953 nM
Procedure: as §1

[11] = target: T4, γc (CD132, IL-2Rγ, common gamma chain); assay: cell-based or functional assay; remark: listed apart in the source
[12] = target: T1, human CD25 (IL-2Rα); assay: SPR; steady state affinity; remark: listed apart in the source
[13] = target: T1, human CD25 (IL-2Rα); assay: SPR sensorgram, no concentration legend

Kd [3]: 4.99 nM | binding result [4]: no binding (tested: 50 nM)
B2: MDNA209FEY-Fc (2:1) (Fc fusion)
chain: APTSSSTKKTQLQLEHLRLDLEMILNGINNYKNPKLTRMLTAKFAMPKKATELKHLQCLEEELKPLEEVLNLAQSKNFHFDPRDVVSNINVFVLELKGSETTFMCEYADETATIVEFLNRWITFCTSIIRTLT
notes: MDNA209 plus F42A, Y45A, fused to Fc; also called TP40452F; not shown: linker (if any) and Fc region

Kd [5]: 3.25 nM | Kd [6]: 35.8 nM
B3: MDNA209(3)-Fc (Fc fusion)
chain: B2 chain with A42F, A45Y, R130S
notes: MDNA209(3) (L18R, Q22E, L80F, R81D, L85V, I86V, I92F, Q126T) fused to Fc, made in CHO; not shown: linker (if any) and Fc region

Kd [3]: 3.91 nM | Fold against IL-2-Fc alone, HEK-Blue IL-2 reporter assay, antagonist format [7]: 15.1 fold | fold decrease in Fold against hIL-2, HEK-Blue IL-2 reporter assay, fixed agonist format [7]: 210 fold | Kd [8]: 39.1 nM
B4: MDNA209-Fc (2:1) (Fc fusion)
chain: B2 chain with A42F, A45Y
notes: IL-2 mutein MDNA209 (L18R, Q22E, L80F, R81D, L85V, I86V, I92F, Q126T, S130R) fused to Fc; (2:1) read as two muteins per Fc dimer; order from the name; also called MDNA209 (2:1) Fc; Construct #8; not shown: linker (if any) and Fc region

Kd [3]: 4.59 nM | binding result [10]: no binding (tested: 62.5 nM)
B6: MDNA209FEAA-Fc-A11 (2:1:2) (Fc fusion)
chain: B2 chain with A45Y, E62A
notes: Bispecific format: IL-2 antagonist mutein with FEAA, Fc, and IL-13 mutein A11; also called Construct #10; not shown: linker (if any), Fc, linker and IL-13 mutein A11

Kd [5]: 3.79 nM | Kd [12]: 4610 nM
B9: MDNA209(3)FA-Fc (Fc fusion)
chain: B2 chain with A45Y, R130S
notes: MDNA209(3) plus F42A fused to Fc, made in CHO; not shown: linker (if any) and Fc region

The remaining lines, values behind:

Molecule: MDNA109-Fc (Fc fusion)
Kd [1]: 14 nM | Kd [2]: 2.7 nM

B1: MDNA209FA-Fc (2:1) (Fc fusion)
chain: B2 chain with A45Y
notes: MDNA209 plus F42A, fused to Fc; also called TP40451F; not shown: linker (if any) and Fc region
Kd [3]: 5.51 nM | binding result [4]: no binding (tested: 50 nM)

B5: MDNA209FEAA-Fc (2:1) (Fc fusion)
chain: B2 chain with A45Y, E62A
notes: MDNA209 plus F42A, E62A, fused to Fc; also called MDN209FEAA-Fc; TP36871F; not shown: linker (if any) and Fc region
Kd [3]: 4.94 nM | EC50 (agonist activity), HEK-Blue IL-2 reporter assay [9]: > 107 nM | Fold against hIL-2 (agonist activity), HEK-Blue IL-2 reporter assay [9]: ~2800 fold | binding result [10]: no binding (tested: 62.5 nM)

B7: MDNA209 (free) (ligand)
chain: B2 chain with A42F, A45Y
Kd [5]: 0.537 nM | Kd [6]: 31.3 nM

B8: MDNA209(3)FEAA-Fc (2:1) (Fc fusion)
chain: B2 chain with A45Y, E62A, R130S
notes: MDNA209(3) (no S130R) plus F42A, E62A, fused to Fc; also called TP36872F; not shown: linker (if any) and Fc region
fold decrease in agonist activity, HEK-Blue IL-2 reporter assay [11]: ~60 fold | Kd [3]: 3.75 nM | binding result [10]: no binding (tested: 62.5 nM)

B10: MDNA209FEAA (free) (ligand)
chain: B2 chain with A45Y, E62A
Kd [5]: 1.59 nM | binding result [13]: no binding
